Measured values as given in US20210052695A1 (CAMBRIDGE ENTERPRISE, published 2021).
Each block holds one binder with its values, some of them ahead of it. Ends that are not written are not given here. * marks the point of attachment. TAMRA = 5-carboxytetramethylrhodamine, CN(C)c1ccc2c(-c3ccc(C(=O)*)cc3C(=O)[O-])c3ccc(N(C)C)cc3[o+]c2c1

What was measured:
[1] = biological target: T1, HLA-A*68:02 expressed on the cell surface (HeLaM cells, or HeLaM-HLA-ABC^KO cells reconstituted with … (human)); experiment: flow cytometry, time course with 10 nM fluorescent peptide (FIG. 1e)
T1 construct: whole, on cells; Carries the cells' own, unnamed peptides before exchange; also called HLA-A*A68:02

[2] = biological target: T1, HLA-A*68:02 expressed on the cell …; experiment: flow cytometry, dose response of fluorescent peptide on HeLaM cell lines (FIG. 1d)
[3] = biological target: T1, HLA-A*68:02 expressed on the cell …; experiment: flow cytometry of fluorescent peptide on transduced HeLaM-TAPBPR^KO cells
[4] = biological target: T1, HLA-A*68:02 expressed on the cell …; experiment: cell-based peptide exchange on HeLa^KOTAPBPR^WT cells, displacement of fluorescent peptide, flow cytometry
[5] = biological target: T1, HLA-A*68:02 expressed on the cell …; experiment: flow cytometry of fluorescent peptide on IFN-γ treated HeLaM cell lines, 15 min at 37° C.
[6] = biological target: T1, HLA-A*68:02 expressed on the cell …; experiment: cell-based peptide exchange: no dissociation of fluorescent peptide from HLA-A*68:02 on HeLa^KOTAPBPR^WT cells
[7] = biological target: T1, HLA-A*68:02 expressed on the cell …; experiment: flow cytometry of TAPBPR on HeLaM cells without surface GFP
[8] = biological target: T1, HLA-A*68:02 expressed on the cell …; experiment: flow cytometry with PeTe-4 on HeLaM, HeLaM-HLA-ABC^KO and HLA-A*68:02 reconstituted cells, 100 nM protein, 15 min at 37° C.
[9] = biological target: T2, UDP-glucose:glycoprotein glucosyltransferase 1 (UGT1) (UniProt Q9NYU2 43-1555); experiment: immunoprecipitation of the intracellular TAPBPR pool, Western blot for UGT1
T2 construct: Detected by Western blot in TAPBPR immunoprecipitates
T2 sequence (Q9NYU2 43-1555 limits assumed): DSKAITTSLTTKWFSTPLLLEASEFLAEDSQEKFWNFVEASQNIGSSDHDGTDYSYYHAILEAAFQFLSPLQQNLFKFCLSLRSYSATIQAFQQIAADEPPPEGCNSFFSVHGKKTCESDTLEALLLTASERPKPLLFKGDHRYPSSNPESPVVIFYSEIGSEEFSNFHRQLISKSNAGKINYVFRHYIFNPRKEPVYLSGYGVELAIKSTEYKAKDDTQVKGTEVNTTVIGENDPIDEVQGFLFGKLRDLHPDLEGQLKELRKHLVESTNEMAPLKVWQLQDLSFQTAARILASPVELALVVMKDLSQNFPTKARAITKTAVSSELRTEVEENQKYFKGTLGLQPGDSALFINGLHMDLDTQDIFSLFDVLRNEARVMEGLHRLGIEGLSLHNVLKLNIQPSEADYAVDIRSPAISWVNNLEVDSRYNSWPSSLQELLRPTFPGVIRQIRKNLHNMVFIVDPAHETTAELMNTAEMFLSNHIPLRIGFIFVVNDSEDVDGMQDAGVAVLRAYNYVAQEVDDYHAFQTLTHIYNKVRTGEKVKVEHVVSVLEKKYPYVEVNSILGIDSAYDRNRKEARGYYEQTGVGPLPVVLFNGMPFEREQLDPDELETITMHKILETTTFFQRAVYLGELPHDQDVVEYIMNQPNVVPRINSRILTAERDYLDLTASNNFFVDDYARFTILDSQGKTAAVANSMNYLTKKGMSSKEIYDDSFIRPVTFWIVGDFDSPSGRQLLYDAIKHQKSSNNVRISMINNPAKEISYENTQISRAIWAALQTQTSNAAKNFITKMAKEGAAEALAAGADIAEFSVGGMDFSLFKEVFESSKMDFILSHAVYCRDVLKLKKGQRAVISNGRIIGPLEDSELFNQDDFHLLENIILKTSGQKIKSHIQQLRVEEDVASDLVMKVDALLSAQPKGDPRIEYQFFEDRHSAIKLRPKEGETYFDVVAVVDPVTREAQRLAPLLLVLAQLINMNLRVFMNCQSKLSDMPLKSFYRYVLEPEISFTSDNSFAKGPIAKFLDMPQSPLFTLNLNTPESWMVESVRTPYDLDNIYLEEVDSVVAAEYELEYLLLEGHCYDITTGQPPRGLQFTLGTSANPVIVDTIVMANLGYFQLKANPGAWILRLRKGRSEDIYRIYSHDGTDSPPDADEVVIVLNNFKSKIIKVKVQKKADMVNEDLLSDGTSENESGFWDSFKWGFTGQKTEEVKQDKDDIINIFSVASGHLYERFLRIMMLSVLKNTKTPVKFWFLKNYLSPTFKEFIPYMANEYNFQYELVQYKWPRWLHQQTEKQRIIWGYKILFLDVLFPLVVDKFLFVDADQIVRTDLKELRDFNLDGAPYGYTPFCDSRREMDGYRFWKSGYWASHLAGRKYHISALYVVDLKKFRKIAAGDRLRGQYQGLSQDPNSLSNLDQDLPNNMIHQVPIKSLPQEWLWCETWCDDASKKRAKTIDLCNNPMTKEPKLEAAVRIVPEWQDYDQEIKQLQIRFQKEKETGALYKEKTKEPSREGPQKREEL

B1: ETVSK*QSNV (fluorescent variant of the neoantigen …) (peptide)
peptide: ETVSK(TAMRA)QSNV
fold increase in fluorescent peptide bound to HeLaKO-TAPBPR^WT against the HeLaM and HeLaM^KO controls after 60 min [1]: 21 fold | fold less efficient peptide binding to cells lacking surface TAPBPR than TAPBPR-promoted binding [2]: ~120 times | fold less exogenous peptide binding on tapasin^PM cells than on TAPBPR^PM cells [3]: ~10 times

B2: ETVSEQSNV (unlabeled HLA-A*68:02-binding peptide) (peptide)
peptide: ETVSEQSNV
binding result [4]: binds

B3: YVVPFVAKV (unlabeled peptide) (peptide)
peptide: YVVPFVAKV
binding result [4]: binds

B4: EGVSK*QSNG (fluorescent non-binding variant with the anchor residues mutated) (peptide)
peptide: EGVSK(TAMRA)QSNG
notes: also called ETVΔ2/9
binding result [5]: no binding (tested: 10 nM)

B9: YVVPFVAK*V (fluorescent variant of YVVPFVAKV) (peptide)
peptide: YVVPFVAK(TAMRA)V
fold less exogenous peptide binding on tapasin^PM cells than on TAPBPR^PM cells [3]: ~10 times

Now from value to binder:

binding result [6]: no binding
B5: EGVSEQSNG (unlabeled derivative of … with the anchor residues at positions 2 and 9 replaced by glycine) (peptide)
peptide: EGVSEQSNG
notes: also called ETVΔ2/9

binding result [7]: no binding (tested: 100 nM)
B6: TAPBPR-GFPNB fusion protein (soluble TAPBPR fused to a nanobody specific for GFP, long linker) (other)
chain: KPHPAEGQWRAVDVVLDCFLVKDGAHRGALASSEDRARASLVLKQVPVLDDGSLEDFTDFQGGTLAQDDPPIIFEASVDLVQIPQAEALLHADCSGKEVTCEISRYFLQMTETTVKTAAWFMANVQVSGGGPSISLVMKTPRVAKNEVLWHPTLNLPLSPQGTVRTAVEFQVMTQTQSLSFLLGSSASLDCGFSMAPGLDLISVEWRLQHKGRGQLVYSWTAGQGQAVRKGATLEPAQLGMARDASLTLPGLTIQDEGTYICQITTSLYRAQQIIQLNIQASPKVRLSLANEALLPTLICDIAGYYPLDVVVTWTREELGGSPAQVSGASFSSLRQSVAGTYSISSSLTAEPGSAGATYTCQVTHISLEEPLGASTQVVPPERRHVGGGGSGGGGSGGGGSTSQVQLVESGGALVQPGGSLRLSCAASGFPVNRYSMRWYRQAPGKEREWVAGMSSAGDRSSYEDSVKGRFTISRDDARNTVYLQMNSLKPEDTAVYYCNVNVGFEYWGQGTQVTVSSK
notes: 21 aa leader left out; also called sTAPBPR-linker-GFPNB; sTAPBPR-GFP sdAb

binding result [8]: binds
B7: soluble TAPBPR^WT (secreted luminal domain of human TAPBPR, C-terminally His-tagged) (other)
chain: KPHPAEGQWRAVDVVLDCFLVKDGAHRGALASSEDRARASLVLKQVPVLDDGSLEDFTDFQGGTLAQDDPPIIFEASVDLVQIPQAEALLHADCSGKEVTCEISRYFLQMTETTVKTAAWFMANVQVSGGGPSISLVMKTPRVAKNEVLWHPTLNLPLSPQGTVRTAVEFQVMTQTQSLSFLLGSSASLDCGFSMAPGLDLISVEWRLQHKGRGQLVYSWTAGQGQAVRKGATLEPAQLGMARDASLTLPGLTIQDEGTYICQITTSLYRAQQIIQLNIQASPKVRLSLANEALLPTLICDIAGYYPLDVVVTWTREELGGSPAQVSGASFSSLRQSVAGTYSISSSLTAEPGSAGATYTCQVTHISLEEPLGASTQVVPPERR
notes: Made in 293T cells with the PiggyBac system and purified on Ni Sepharose; also called sol WT; exogenous TAPBPR^WT; not shown: C-terminal His tag

binding result [9]: binds
B8: full-length TAPBPR^WT over-expressed in HeLaM-TAPBPR^KO cells (other)
chain: KPHPAEGQWRAVDVVLDCFLVKDGAHRGALASSEDRARASLVLKQVPVLDDGSLEDFTDFQGGTLAQDDPPIIFEASVDLVQIPQAEALLHADCSGKEVTCEISRYFLQMTETTVKTAAWFMANVQVSGGGPSISLVMKTPRVAKNEVLWHPTLNLPLSPQGTVRTAVEFQVMTQTQSLSFLLGSSASLDCGFSMAPGLDLISVEWRLQHKGRGQLVYSWTAGQGQAVRKGATLEPAQLGMARDASLTLPGLTIQDEGTYICQITTSLYRAQQIIQLNIQASPKVRLSLANEALLPTLICDIAGYYPLDVVVTWTREELGGSPAQVSGASFSSLRQSVAGTYSISSSLTAEPGSAGATYTCQVTHISLEEPLGASTQVVPPERRTALGVIFASSLFLLALMFLGLQRRQAPTGLGLLQAERWETTSCADTQSSHLHEDRTARVSQPS
notes: V41_G151_V169 polymorphisms as used in the studies; also called surface TAPBPR; HeLa^KOTAPBPR^WT
